One assay deals with T1, human Trop-2-His protein (human, UniProt P09758 27-274).
T1 construct: extracellular domain; Assay paragraphs say only 'Trop-2-His'; also called hTrop-2; Kactus Cat #TRP-HM121; not shown: His tag
T1 sequence (looked up): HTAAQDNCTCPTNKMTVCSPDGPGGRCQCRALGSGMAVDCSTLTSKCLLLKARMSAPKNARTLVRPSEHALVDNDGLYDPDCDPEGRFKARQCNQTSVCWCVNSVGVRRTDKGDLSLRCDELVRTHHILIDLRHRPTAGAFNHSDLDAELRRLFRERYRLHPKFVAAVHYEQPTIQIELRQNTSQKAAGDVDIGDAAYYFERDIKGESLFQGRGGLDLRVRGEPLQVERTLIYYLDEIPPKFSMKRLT
The experiment in a line: ELISA, coated Trop-2 protein. As to the method:
(§1) Purified antibodies were tested by ELISA to confirm their binding and affinity against human and cynomolgus Trop-2-His protein. Briefly, 96-well Maxisorp plates (Nunc) were coated with 100 μl/well of 0.5 μg/ml human (Kactus Cat #TRP-HM121, or Sino Biological, Cat #10428-HO8H) or cynomolgus Trop-2 protein (Kactus Cat #TRP-CM121, or Sino Biological, Cat #90893-CO8H) diluted in 1×PBS (GIBCO) overnight at 4° C. Plates were washed four times with 300 μl/well washing buffer (1×PBST, diluted from 20×PBST (Thermo Scientific) with distilled water)) and then blocked with 300 μl/well of blocking buffer (1×PBST/3% BSA (BSA, Sigma)) for 2 hours at RT on plate shaker at 100 rpm. Plates were washed and added with 100 μl/well of testing antibodies, which were serial diluted with assay buffer (PBST/1% BSA). The antibodies were incubated at room temperature for 2 hours on plate shaker at 100 rpm. Plates were washed. One hundred microliters (100 μl) of 1:10,000 diluted horseradish peroxidase (HRP) conjugated anti-hIgG antibody (Jackson Immuno Research) was added into each well and incubated at room temperature for 1 hour on plate shaker at 100 rpm. Plates were washed and added with 100 μl/well TMB substrate for color development in dark at room temperature for up to 10 minutes. After addition of 50 μl/well of stop solution (1N H₂SO₄), plates were read at 450 nm on a plate reader (SpectraMax M5). EC₅₀ values were calculated using Graphpad Prism. Sacituzumab govitecan, was used as positive control. Anti-HEL.hIgG1 was used as isotype control.
(In general: An ELISA detects its analyte on a solid surface through an enzyme-linked reagent.)

The target in assay [1] is T2, cynomolgus Trop-2-His protein (cynomolgus, UniProt P09758 27-274 (human entry)).
T2 construct: also called cynmolgus Trop-His; Kactus Cat #TRP-CM121; not shown: His tag
T2 chain: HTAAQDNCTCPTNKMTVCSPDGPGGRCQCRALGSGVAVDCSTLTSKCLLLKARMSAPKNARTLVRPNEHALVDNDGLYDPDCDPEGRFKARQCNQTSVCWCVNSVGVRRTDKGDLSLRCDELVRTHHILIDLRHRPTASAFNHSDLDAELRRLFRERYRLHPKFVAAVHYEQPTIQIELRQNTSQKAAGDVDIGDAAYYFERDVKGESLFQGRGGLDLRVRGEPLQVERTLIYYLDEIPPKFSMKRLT
The experiment in a line: ELISA, coated Trop-2 protein. As for the experimental part: as §1

In another assay the target is T3, human Trop-1 (EpCAM) (human, UniProt P16422 24-265, limits assumed).
T3 sequence (looked up): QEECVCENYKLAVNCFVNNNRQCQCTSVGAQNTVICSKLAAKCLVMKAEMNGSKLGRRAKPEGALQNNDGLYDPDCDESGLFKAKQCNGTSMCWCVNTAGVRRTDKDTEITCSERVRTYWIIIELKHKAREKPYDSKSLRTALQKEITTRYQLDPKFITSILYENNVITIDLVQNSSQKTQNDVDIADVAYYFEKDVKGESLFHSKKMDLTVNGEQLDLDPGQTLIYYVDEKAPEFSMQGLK
As to the kind of experiment: ELISA, similar to Table 24.

The target of another assay is T4, mouse Trop-2 (mouse, UniProt Q8BGV3 25-270, limits assumed).
T4 construct: also called Kactus Cat #TRP-MM121
T4 sequence (looked up): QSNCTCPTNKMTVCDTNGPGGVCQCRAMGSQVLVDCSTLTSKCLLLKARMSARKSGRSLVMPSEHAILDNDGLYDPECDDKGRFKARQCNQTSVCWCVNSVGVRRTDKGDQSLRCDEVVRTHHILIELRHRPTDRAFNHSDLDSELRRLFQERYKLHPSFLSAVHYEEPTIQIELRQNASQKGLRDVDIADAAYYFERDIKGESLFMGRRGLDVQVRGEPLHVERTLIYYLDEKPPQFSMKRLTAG
As to the kind of experiment: ELISA, similar to Table 24.

In assay [2] the target is T5, human Trop-2 expressed on cell surface (human, UniProt P09758 27-323).
T5 construct: whole, on cells; also called cell surface Trop-2
T5 sequence (looked up): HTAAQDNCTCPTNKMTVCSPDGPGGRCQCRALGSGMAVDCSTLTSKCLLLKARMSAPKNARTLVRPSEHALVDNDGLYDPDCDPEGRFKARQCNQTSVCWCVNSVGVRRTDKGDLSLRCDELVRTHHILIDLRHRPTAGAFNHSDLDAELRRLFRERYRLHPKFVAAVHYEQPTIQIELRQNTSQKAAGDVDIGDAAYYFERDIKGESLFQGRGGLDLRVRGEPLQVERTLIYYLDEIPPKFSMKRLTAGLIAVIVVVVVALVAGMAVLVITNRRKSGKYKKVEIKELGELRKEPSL
As to the kind of experiment: flow cytometry, MCF-7 cells. As for the experimental part:
Cells were then resuspended in FACS buffer (1×DPBS/1% FBS) at 10⁶/ml concentration. One hundred microliter (100 μl) of cells were aliquoted into a single well in 96 well plates. The antibodies to be tested were serially diluted at 1:3 fold starting at 15 μg/mL and were then added into each well. The antibodies were mixed with cells and the mixtures were incubated on ice for 1 hour. After washing with FACS buffer, one hundred microliter (100 μl) of 1:400 diluted PE-conjugated anti-human Fc secondary antibody (Jackson Immuno Research) was added into each well and incubated for 30 minutes on ice. After washing with FACS buffer, stained cells were resuspended at diluted 7-ADD (Biolegend, used at 1:100 dilution) and analyzed on Guava 11HT or 5HT (Luminex). Data was analyzed using Flowjo software. EC₅₀ values were calculated using GraphPad Prism. Sacitnzurnab govitecan was used as positive control. Anti-HEL.hIgG1 was used as isotype negative control. Similar assay was performed using MCF-7 cells (known to express human Trop-2).

B1: 9D7 (antibody, V domains shown)
VH: QSLEESGGDLVQPGASLTLTCKASGFDLNNYSILWVRQAPGKGLEWIGCIYISGGSTYYANWAKGRFAISKTSSTTVTLQMTSLTAADTATYFCARDDGTASYYLNLWGPGTLVTVSS
VL: YDMTQTPASVSEPVGGTVTIKCQASEDIYKLLAWYQQKPGQPPKLLIYAASDLESGVPSRFKGRGSGTDYTLTISDLECADAATYYCQQAYTIGNIDNSFGGGTEVVVK
notes: Rabbit-derived clone; LEM construct: VH + rabbit IgG CH1 + human IgG1 CH2-CH3
B1: the concentration giving a half-maximal response (EC50) with human Trop-2-His protein was found to be 0.017 nM; in assay [1] it was 0.016 nM; in assay [2], 1.2 nM. Moreover, the binding result with human Trop-1 (EpCAM) and with mouse Trop-2 was “no binding” throughout.

B2: 10A9 (antibody, V domains shown)
VH: QSLEESGGDLVQPGASLTLTCKASGFDLNNYAMLWVRQAPGKGLEWIGCIYISGGTTYFASWATGRFAISKTSSTTVTLQMTSLTAADTATYFCARDDGTTSYYLNLWGPGTLVTVSS
VL: YDMTQTPASVSAAVGGTVTIKCQASEDIYSLLAWYQQKPGQPPKLLIYGASNLESGVPSRFKGSGSGTEYTLTISDLECDDAATYYCQQAYTIGNIDNAFGGGTEVVVK
notes: as for B1
Consider B2, for which the 50% effective concentration (EC50) came to 0.017 nM with human Trop-2-His protein, 0.015 nM in assay [1] and 1.4 nM in assay [2]. In addition, the binding result in the assay with human Trop-1 (EpCAM) and with mouse Trop-2 was “no binding” in each case.

B3: 10A9-2 (antibody, V domains shown)
VH: QSLEESGGDLVQPGASLTLTCKASGFDLNNYAMLWVRQAPGKGLEWIGSIYISGGTTYFASWATGRFAISKTSSTTVTLQMTSLTAADTATYFCARDDGTTSYYLNLWGPGTLVTVSS
VL: YDMTQTPASVSAAVGGTVTIKCQASEDIYSLLAWYQQKPGQPPKLLIYGASNLESGVPSRFKGSGSGTEYTLTISDLEADDAATYYCQQAYTIGNIDNAFGGGTEVVVK
Take B3: the figures for the half-maximal effective concentration (EC50) (in the assay with human Trop-2-His protein; in assay [1]; in assay [2]) were 0.014 nM, 0.016 nM and 1.8 nM, respectively. Moreover, the binding result with human Trop-1 (EpCAM) and with mouse Trop-2 was “no binding” throughout.

B4: 9D7-2 (antibody, V domains shown)
VH: QSLEESGGDLVQPGASLTLTCKASGFDLNNYSILWVRQAPGKGLEWIGSIYISGGSTYYANWAKGRFAISKTSSTTVTLQMTSLTAADTATYFCARDDGTASYYLNLWGPGTLVTVSS
VL: YDMTQTPASVSEPVGGTVTIKCQASEDIYKLLAWYQQKPGQPPKLLIYAASDLESGVPSRFKGRGSGTDYTLTISDLEAADAATYYCQQAYTIGNIDNSFGGGTEVVVK
For the molecule B4, the EC50 is 0.02 nM with human Trop-2-His protein, 0.014 nM in assay [1] and 1 nM in assay [2]. The binding result with human Trop-1 (EpCAM) and with mouse Trop-2 was “no binding” throughout.

B5: 1D10 (antibody, V domains shown)
VH: QEQLKESGGGLVQPGGSLTLSCKASGFDFNYYGVSWVRQAPGKGLEWIGYIYPAYHNTYYATWVNGRFTISSHNAQNTLYLQLNTLTAADTATYFCARDAGSTDYNLNLWGPGTLVTVSS
VL: DVVMTQTPASVEVAVGGTVTIKCQASEDIESYLAWYQQKPGQPPRLLIYEASKLASGVSSRFSGGGYGTDFTLTISGVECADAATYYCHQALTIGNVDNPFGGGGEVVVK
notes: as for B1
Regarding B5, the concentration for a half-maximal effect (EC50) with human Trop-2-His protein is 0.016 nM; in assay [1], 0.017 nM; in assay [2] it was 0.9 nM. The binding result in the assay with human Trop-1 (EpCAM) and in the assay with mouse Trop-2 was “no binding” throughout.

B6: 74F11/15F5 (antibody, human IgG1, V domains shown)
VH: QEQLKESGGGLVQPGGSLKLSCKASGFDFNNYGMSWVRQAPGKGLEWIAYIYPAFHNTYYANWVNGRFTISSDNAQNTVDLQLNSLTAADTATYFCARDAGSTDYNFNLWGPGTLVTVSS
VL: DVVMTQTPASVEAAVGGTVTIKCQASEDIERYLAWYQQKPGQPPKLLIYEASKLPSGVSSRFSGSGYGTEFTLTISGVECADAATYYCQQALTIGYVDNPFGGGSEVVVK
notes: LEM construct: VH + rabbit IgG CH1 + human IgG1 CH2-CH3
Take B6: the results for the EC50 (with human Trop-2-His protein; in assay [1]; in assay [2]) were 0.013 nM, 0.014 nM and 0.9 nM, respectively. Further, the binding result with human Trop-1 (EpCAM) and with mouse Trop-2 was “no binding” in each case.

B7: 72F12 (antibody, V domains shown)
VH: QEQLKESGGGLVQPGGSLKLSCKASGFDFNNYGVSWVRQAPGKGLEWIAYIYPAFHNTYYATWVNGRFTISSHNAQNTLYLQLNSLTAADTATYFCARDAGSVDYNFNLWGPGTLVTVSS
VL: DVVMTQTPASVEVAVGGTVTIKCQASKNIDSNLAWYQQKPGQPPKQLIYAASTLASGVSSRFSGSGYGAEFTLTISGVECADAATYYCQQALTIGNVDNPFGGGSEVVVK
notes: as for B1
As for B7, the EC50 in the assay with human Trop-2-His protein amounted to 0.013 nM; in assay [1], 0.013 nM; in assay [2] it was 0.7 nM. Also, the binding result with human Trop-1 (EpCAM) and in the assay with mouse Trop-2 was “no binding” in each case.

B8: 9F7 (antibody, V domains shown)
VH: QEQLKESGGGLVQPGGSLTLSCKASGFDFNNYGVSWVRQAPGKGLEWIGYIYPAYHNTYYATWVNGRFTISSHNAQNTLYLQLNTLTAADTATYFCARDTGSTDYNFNLWGPGTLVTVSS
VL: DVVMTQTPASVEVAVGGTVTIKCQASEDIESYLAWYQQKPGQPPKLLIYEASKLASGVSSRFSGGGYGTEFTLTISGVECADAATYYCQQALTVGNVDNPFGGGSEVVVK
notes: as for B1
Regarding B8, the EC50 with human Trop-2-His protein worked out at 0.033 nM; in assay [1] it was 0.03 nM; in assay [2], 0.3 nM. For the same molecule, the binding result with human Trop-1 (EpCAM) and with mouse Trop-2 was “no binding” throughout.

B9: 62E3 (antibody, V domains shown)
VH: QEQLKESGGGLVQPGGSLKLSCKASGFDFNEYGVSWVRQAPGKGLEWIAYIYPAFHNTYYATWVNGRFTISSHNAQNTLYLQLNTLTAADTATYFCARDAGTTDYNFNLWGPGTLVTVSS
VL: DVVMTQTASPVSAAVGGTVTIKCQASEDIESYLAWYQQKPGQPPKLLIYEASKLASGVSSRFSGSGYGTEFTLTISGVECADAATYYCQQALTIGNVDNPFGGGSEVVVK
notes: as for B1
Take B9: the concentration for a half-maximal effect (EC50) was found to be 0.018 nM with human Trop-2-His protein, 0.016 nM in assay [1] and 0.7 nM in assay [2]. Further, the binding result with human Trop-1 (EpCAM) and with mouse Trop-2 was “no binding” each time.

In general, EC50 refers to the concentration at which the effect is half-maximal. A high value points to weaker potency.

The values above are taken from patent US20250206841A1 (ADEPT THERAPEUTICS, published 2025).
